First the molecules themselves.
B1: Mycobacterium tuberculosis DnaK T175A (catalytically dead mutant), full-length (natural protein)
chain: not shown

The series “native gel or EMSA” concerns the molecule itself. Nature of the series: native gel or EMSA.
The target of series [1] is B1. Kind of series: native gel or EMSA. Background: In EMSA bound probe runs differently from free probe, usually more slowly.

Regarding B1, in the series “native gel or EMSA”, the binding result is listed as “binds”.

B2: Mycobacterium tuberculosis GrpE (natural protein)
chain: MTDGNQKPDGNSGEQVTVTDKRRIDPETGEVRHVPPGDMPGGTAAADAAHTEDKVAELTADLQRVQADFANYRKRALRDQQAAADRAKASVVSQLLGVLDDLERARKHGDLESGPLKSVADKLDSALTGLGLVAFGAEGEDFDPVLHEAVQHEGDGGQGSKPVIGTVMRQGYQLGEQVLRHALVGVVDTVVVDAAELESVDDGTAVADTAENDQADQGNSADTSGEQAESEPSGS
For B2, the binding result in series [1] is listed as “binds”.

For the origin of these results see article PMC9124243 (Cell chemical biology, 2021).
